Publication PMC13541077

Molecular target: recombinant soluble PRRSV-1 Olot/91 glycoprotein 3 ectodomain (sGP3) (PRRSV-1 (Betaarterivirus europensis), strain Olot/91)
Assay: mass photometry; Refeyn MPOne; GP3 at 20 nM in filtered PBS, triplicate; calibrated with BSA, beta-amylase and thyroglobulin

## recombinant soluble PRRSV-1 Olot/91 glycoprotein 3 ectodomain (sGP3) (domain or fragment)
  stoichiometry N: 2
